Entries after “also recorded” stand apart in the source; their conditions may differ.
Experiments:
[1] = Luminescence activities of MpLuc1 and its variants; assay type: cell-based; settings: for luminescence stability compared with MpLuc1: microplate reader
Procedure: These variants were individually introduced in equal amounts into living cells, and their relative luminescence intensities were measured.

[2] = Luminescence activities of MLuc and its variants; assay type: cell-based; settings: for luminescence stability of MLuc variants: measured every 0.5 seconds
Procedure: These variants were individually introduced in equal amounts into living cells, and their relative luminescence spectra were measured. […] In order to examine the luminescence stability of the variants produced in the present invention, temporal changes in the luminescence intensity after the introduction of the substrate were measured every 0.5 seconds (FIG. 15B). […] Further, in order to examine the long-wavelength luminescence intensities of the variants, the luminescence intensities of the variants were measured using a 610 nm long-pass filter. […] Results similar to the above tendency were obtained from the measurement of the luminescence intensities before and after the introduction of the substrate (FIG. 15D).

[3] = Temporal changes in bioluminescence intensity after substrate introduction (stability); settings: for bioluminescence stability and strength: substrate in modified Matthew's buffer; for bioluminescence stability, long time: 10 minutes; for bioluminescence stability, long time / bioluminescence stability, short time: substrate in PBS buffer; for bioluminescence stability, short time: 5 seconds
Procedure: First, a gene encoding each GLuc variant was cloned into pcDNA 3.1(+), and the same amount of plasmid was introduced into COS-7 cells. The cells were collected 16 hours after the introduction, lysed in cell lysate, and then transferred to a microplate reader. PBS buffer in which coelenterazine is dissolved was set to a substrate injector of the plate reader. At the measurement, after the substrate was automatically injected into each well, changes in the luminescence intensities were measured every 0.05 seconds.
Note that the composition of the modified Matthew's buffer contains the following components: • 100 mM potassium phosphate, 500 mM sodium chloride, 1 mM ethylenediaminetetraacetic acid (EDTA), 0.15 mg/ml porcine gelatin, pH 5.0, 1% Nonyiphenol ethoxylates (Tergitol NP-9) and 1% Antifoam, 25 mM thiourea, and 0.1% DMSO.

[4] = Area of luminescence spectrum of GLuc variants (20-minute lysis, luminescence plate reader); assay type: biochemical; settings: for bioluminescence intensity higher than GLuc (area ratio): plate reader; for bioluminescence intensity (area of spectrum), in words: versus original GLuc
Procedure: In this case, a protocol for immersing the lysate samples in lysis solution for 20 minutes was employed (uniformed cell lysates even whose organelles are lysed). The area of the luminescence spectrum measured by a luminescence plate reader was used as the index of the luminescence intensity.

[5] = test system: BALE/c nude mice; experiment: In vivo imaging of transplanted COS-7 cells expressing GLuc or 8990; settings: subcutaneous COS-7 cells, coelenterazine injected; listed as 8990
Procedure: Subsequently, both of these transformed cells were transplanted into subcutaneous tissues of the back on the left and right sides of BALE/c nude mice (5-week-old female). After waiting 12 hours to allow stabilization of the transplanted cells, an equal amount of substrate (coelenterazine) was injected. Subsequently, the developed bioluminescence intensities were compared (FIG. 16A).

[6] = Luminescence spectrum of GLuc variants in COS-7 cell lysates (5-minute lysis, spectrophotometer); assay type: biochemical; settings: for luminance (peak of luminescence spectrum), in words: versus original GLuc; for luminescence intensity higher than GLuc (peak of luminescence spectrum): COS-7 lysate, coelenterazine
Procedure: Subsequently, cell lysates were prepared from the COS-7 cells in each well (5-minute lysis), and a spectrum was measured in the presence of a luciferase-specific substrate (coelenterazine), using a fluorescence spectrophotometer (F-7000, Hitachi), thereby examining the effect of the introduced mutation. FIGS. 4B-1 and 4C show the results.
Additionally, in the preparation of cell samples, the samples are immersed in a lysis solution for 5 minutes. This allows preparation of non-uniform samples of cells whose organelles are not lysed, by a quick process.

B1: I114L: MpLuc1 with a mutation introduced into I114; corresponds to I90 of GLuc (protein)
chain: MMEIQVLFALICFALVQANPTENKDDIDIVGVEGKFGTTDLETDLFTIVEDMNVISRDTNLANSDADRGKMPGKKLPLEVLIEMEANARKAGCTRGCLICLSKIKCTAKMKVYLPGRCHDYGGDKKTGQAGIVGAIVDIPEISGFKELGPMEQFIAQVDLCADCTTGCLKGLANVKCSALLKKWLPDRCASFADKIQSEVDNIKGLAGDRKDEL
modifications: MpLuc1 mutant (I114L)
[1]; luminescence spectrum
  luminescence intensity compared to original MpLuc1: higher luminescence intensity
[1]
  luminescence stability compared with MpLuc1: more stable bioluminescences

B2: MpLuc4: Y113W/I114L/H119E/Y121W variant of MpLuc1 (protein)
chain: MMEIQVLFALICFALVQANPTENKDDIDIVGVEGKFGTTDLETDLFTIVEDMNVISRDTNLANSDADRGKMPGKKLPLEVLIEMEANARKAGCTRGCLICLSKIKCTAKMKVWLPGRCEDWGGDKKTGQAGIVGAIVDIPEISGFKELGPMEQFIAQVDLCADCTTGCLKGLANVKCSALLKKWLPDRCASFADKIQSEVDNIKGLAGDR
modifications: MpLuc1 mutant (Y113W/I114L/H119E/Y121W); MpLuc4
notes: Y113W/I114L/H119E/Y121W variant of MpLuc1
[1]; 10 seconds after introduction of substrate
  initial luminescence intensity sustained: 60%
[1]
  luminescence stability compared with MpLuc1: more stable bioluminescences

B3: MLuc4: Y122W/I123L/H128E/Y130W variant of MLuc (protein)
chain: MDIKVVFTLVFSALVQAKSTEFDPNIDIVGLEGKFGITNLETDLFTIWETMEVMIKADIADTDRASNFVATETDANRGKMPGKKLPLAVIMEMEANAFKAGCTRGCLICLSKIKCTAKMKVWLPGRCEDWGGDKKTGQAGIVGAIVDIPEISGFKEMAPMEQFIAQVDRCASCTTGCLKGLANVKCSELLKKWLPDRCASFADKIQKEVHNIKGMAGDR
modifications: MLuc mutant (Y122W/I123L/H128E/Y130W); MLuc4
notes: Y122W/I123L/H128E/Y130W variant of MLuc
[2]
  luminescence stability of MLuc variants: most stable bioluminescence
[2]; listed as Mluc4
  luminescence stability of MLuc variants: more stable bioluminescence

B4: I123L: MLuc with I123L mutation introduced; corresponds to I90 of GLuc (protein)
chain: MDIKVVFTLVFSALVQAKSTEFDPNIDIVGLEGKFGITNLETDLFTIWETMEVMIKADIADTDRASNFVATETDANRGKMPGKKLPLAVIMEMEANAFKAGCTRGCLICLSKIKCTAKMKVYLPGRCHDYGGDKKTGQAGIVGAIVDIPEISGFKEMAPMEQFIAQVDRCASCTTGCLKGLANVKCSELLKKWLPDRCASFADKIQKEVHNIKGMAGDR
modifications: MLuc mutant (I123L)
[2]; 610 nm long-pass filter
  long-wavelength luminescence intensity: strong bioluminescence in the red wavelength
[2]; luminescence spectrum
  luminescence intensity compared to original MLuc: increased

B5: F89W/I90L: GLuc with isoleucine 90 replaced with leucine and phenylalanine 89 with tryptophan (protein)
chain: MGVKVLFALICIAVAEAKPTENNEDFNIVAVASNFATTDLDADRGKLPGKKLPLEVLKEMEANARKAGCTRGCLICLSHIKCTPKMKKWLPGRCHTYEGDKESAQGGIGEAIVDIPEIPGFKDLEPMEQFIAQVDLCVDCTTGCLKGLANVQCSDLLKKWLPQRCATFASKIQGQVDKIKGAGGDKDEL
modifications: GLuc mutant (F89W/I90L); named 8990
[3]
  bioluminescence stability and strength: very stable and strong bioluminescence
[4]
  bioluminescence intensity higher than GLuc (area ratio): 10.2 times
  bioluminescence intensity (area of spectrum), in words: particularly high bioluminescence intensity
[5]
  bioluminescence at transplantation site versus GLuc: stronger bioluminescence

B6: H95E: GLuc variant, histidine at position 95 replaced with glutamic acid (protein)
chain: MGVKVLFALICIAVAEAKPTENNEDFNIVAVASNFATTDLDADRGKLPGKKLPLEVLKEMEANARKAGCTRGCLICLSHIKCTPKMKKFIPGRCETYEGDKESAQGGIGEAIVDIPEIPGFKDLEPMEQFIAQVDLCVDCTTGCLKGLANVQCSDLLKKWLPQRCATFASKIQGQVDKIKGAGGDKDEL
modifications: GLuc mutant (H95E)
[4]
  bioluminescence intensity higher than GLuc (area ratio): 3.0 times
  bioluminescence intensity (area of spectrum), in words: particularly high bioluminescence intensity

B7: I90V: GLuc variant, isoleucine at position 90 mutated to valine (protein)
chain: MGVKVLFALICIAVAEAKPTENNEDFNIVAVASNFATTDLDADRGKLPGKKLPLEVLKEMEANARKAGCTRGCLICLSHIKCTPKMKKFVPGRCHTYEGNKESAQGGIGEAIVDIPEIPGFKDLEPMEQFIAQVDLCVDCTTGCLKGLANVQCSDLLKKWLPQRCATFASKIQGQVDKIKGAGGDKDEL
modifications: GLuc mutant (I90V)
[3]
  bioluminescence stability, long time: relatively stable
[6]
  luminance (peak of luminescence spectrum), in words: particularly high luminance

B8: F89W: GLuc variant, F at position 89 replaced with W (protein)
chain: MGVKVLFALICIAVAEAKPTENNEDFNIVAVASNFATTDLDADRGKLPGKKLPLEVLKEMEANARKAGCTRGCLICLSHIKCTPKMKKWIPGRCHTYEGDKESAQGGIGEAIVDIPEIPGFKDLEPMEQFIAQVDLCVDCTTGCLKGLANVQCSDLLKKWLPQRCATFASKIQGQVDKIKGAGGDKDEL
modifications: GLuc mutant (F89W)
[3]
  bioluminescence stability, short time: relatively unstable luminescence intensity
  bioluminescence stability, long time: relatively unstable
[3]; within 10 minutes after introduction of substrate
  decrease of bioluminescence intensity: about 60%
[6]
  luminescence intensity higher than GLuc (peak of luminescence spectrum): 9 times
  luminance (peak of luminescence spectrum), in words: particularly high luminance

B9: I90L/I115L: GLuc with isoleucine at positions 90 and 115 replaced with leucine (protein)
chain: MGVKVLFALICIAVAEAKPTENNEDFNIVAVASNFATTDLDADRGKLPGKKLPLEVLKEMEANARKAGCTRGCLICLSHIKCTPKMKKFLPGRCHTYEGDKESAQGGIGEAIVDLPEIPGFKDLEPMEQFIAQVDLCVDCTTGCLKGLANVQCSDLLKKWLPQRCATFASKIQGQVDKIKGAGGDKDEL
modifications: GLuc mutant (I90L/I115L)
[3]
  bioluminescence stability and strength: very stable and strong bioluminescence
[4]
  bioluminescence intensity higher than GLuc (area ratio): 4.9 times
  bioluminescence intensity (area of spectrum), in words: particularly high bioluminescence intensity

B10: Y97W: GLuc variant in which tyrosine (Y) at position 97 was mutated to tryptophan (W) (protein)
chain: MGVKVLFALICIAVAEAKPTENNEDFNIVAVASNFATTDLDADRGKLPGKKLPLEVLKEMEANARKAGCTRGCLICLSHIKCTPKMKKFIPGRCHTWEGDKESAQGGIGEAIVDIPEIPGFKDLEPMEQFIAQVDLCVDCTTGCLKGLANVQCSDLLKKWLPQRCATFASKIQGQVDKIKGAGGDKDEL
modifications: GLuc mutant (Y97W)
[3]
  bioluminescence stability, short time: stable luminescence intensities; also recorded: relatively stable bioluminescences
[4]
  bioluminescence intensity higher than GLuc (area ratio): 2.1 times
  bioluminescence intensity (area of spectrum), in words: particularly high bioluminescence intensity

B11: I118V: GLuc variant, position 118 replaced with valine (protein)
chain: MGVKVLFALICIAVAEAKPTENNEDFNIVAVASNFATTDLDADRGKLPGKKLPLEVLKEMEANARKAGCTRGCLICLSHIKCTPKMKKFIPGRCHTYEGNKESAQGGIGEAIVDIPEVPGFKDLEPMEQFIAQVDLCVDCTTGCLKGLANVQCSDLLKKWLPQRCATFASKIQGQVDKIKGAGGDKDEL
modifications: GLuc mutant (I118V)
[6]
  luminance (peak of luminescence spectrum), in words: particularly high luminance

B12: I108V: GLuc variant, position 108 replaced with valine (protein)
chain: MGVKVLFALICIAVAEAKPTENNEDFNIVAVASNFATTDLDADRGKLPGKKLPLEVLKEMEANARKAGCTRGCLICLSHIKCTPKMKKFIPGRCHTYEGNKESAQGGVGEAIVDIPEIPGFKDLEPMEQFIAQVDLCVDCTTGCLKGLANVQCSDLLKKWLPQRCATFASKIQGQVDKIKGAGGDKDEL
modifications: GLuc mutant (I108V)
[6]
  luminescence intensity higher than GLuc (peak of luminescence spectrum): 6.7 times
  luminance (peak of luminescence spectrum), in words: particularly high luminance

Reference: patent publication US20120034672A1, “[…] LUCIFERASE VARIANT WITH PROLONGED BIOLUMINESCENCE” (priority 2009, published 2012)
